# Test results taken from the PETadex activity labels.
# B1: unnamed (protein)
# chain: MQKIRSIGRAGRARWGRAALTAVALAAALSAAQAQTVVGPDPTAAALEAARGPFAVSTTTIKAPRGFRAGTVFFPASVTTPMAAVAVVPGFTARQSSINWLGPRLASWGFVVVTIDTNSTSDQPAARATQLMAALKQVVDESKVAGSPFFGKVDGARLGVMGHSMGGGGSLIAARNNPTLKAAIPMAPWNLGRNFSGVSVPTLVMACQNDAVAPVAQHASPFFESIPATVDKAFLEVRGGSHLCPTTASVANQPLLGKYSVAWMKRFMDNDTRFSAFLCDAPHQADLAGNKISAYRENCPY
# B2: unnamed (protein)
# chain: MPGYQGTQQNLQWLAPRLASWGFTVINLGTNTLTDDPDSRATQIRNAGTQLLSFSATAGNPIANKVRSVTASTGLGVSGHSMGGGGTMVVLRDDSRFTAGAPLAPYHPSGAFSGVTKPTFFLVCASDVAAPGNTYAKPWYNSMASAEKLYMSVPGDHLCPMTGYGDKAKQGKYLVSWFSRWLKGDTSYSQFLCTDSIRNVDKNNTSIVTEWMDTCPY
# B3: unnamed (protein)
# chain: MIKDFLLSRVVIVAGTLIFSMPTLAEITVSETTVVIPKEALPVPTLSNCITDSAITADALSDTRDNGPFTVSTKRVPRQSANGFGGGTIHYPTNASGCGLLGGIAVVPGYVSYESSIKWWGPRLASWGFVVITINTNHISDNPDSRATQLNAALDHLLLDSTVANMVDRDRLGVIGWSMGGGGALRLATDRSTVRAIIAQTPYHDTSYPTMDTPALFIACENDRIAPNKKYTNVFYNNATGPKMKVEVSNGSHFCASHGFHEILLSKPGIAWMQRYINGDTRFDQFLCSSENYNSSPRISSYNYKNCL
# B4: unnamed (protein)
# chain: MERHNSRRRWGMGLGLLLLAASAHAQYQKGPDPTSASLNASSGPFSVATSSVSSLAAVGFGSGTIYYPTTAGSYAVLAICPGFTATESSIAWLGRRIATHGFVVITINTDSTLDQPPSRATQLMAALRHVTESSSATVRSRVDASRRGVAGHSMGGGGTLYAARDNPSLKAAVPLTAWSTTKTFSSMQVPTLVVGAENDSIASVNSHSIPFYNGLPGSLDKAYAELNGASHFAPNTTNTPIGRYSVAWVKRFMDEDTRYSPFLCGAPHQSYA
# B5: unnamed (protein)
# chain: MTTKRHRTATTPTRRARLALLAAATLLSFAAQAQVVIFQENFNSGLGQFTASGTVSTSSGGAVMQGCYNCTDGAITSKPISTVGFTNLKLSYDRTTTGLDSGEYGVAAYSVNGGAWTVIESIQSSSGRVTIALPAAAANQASLRLRFRVNASLSAETFTVDNVVLEGTPGGAPGPGGNPYQKGPDPTAAALEASAGPFTVATTTVSASSASGYGGGTIYYPTNVAGPFAAIAVVPGYTATQSSISWWGPRLASHGFVVITIDTNSTSDLPASRATQLMAALNQLKTFSATSGHAIYGKVDPNRLGVMGWSYGGGGTLIAARDNPTLKAAIPLAPKTSSGTDFSGITVPTLIVGCESDTTAPVSSWAIPFYNSIPASTKKAYLEINNGDHFCVTTSNSSADKAILGKYGVAWMKRFLDNDTRYSPFLCGAPHQADLSGNAAISEYRDNCPY
# B6: unnamed (protein)
# chain: MPPHAARPGPAQNRRGRAMAVITPRRERSSLLSRALRFTAAAATALVTAVSLAAPAHAANPYERGPNPTDALLEARSGPFSVSEERASRFGADGFGGGTIYYPRENNTYGAVAISPGYTGTQASVAWLGERIASHGFVVITIDTNTTLDQPDSRARQLNAALDYMINDASSAVRSRIDSSRLAVMGHSMGGGGSLRLASQRPDLKAAIPLTPWHLNKNWSSVRVPTLIIGADLDTIAPVLTHARPFYNSLPTSISKAYLELDGATHFAPNIPNKIIGKYSVAWLKRFVDNDTRYTQFLCPGPRDGLFGEVEEYRSTCPF
# B7: unnamed (protein)
# chain: MERGNHRAKWAIGFGLLLLGAAAHSQTNPYQKGPDPTSATLNATSGSFAVATSTVSSLAANGFGGGTIYYPTQTGTYAVLAISPGFTATQSSIAWLGRRISTHGFVVITIDTNSTLDQPPSRATQLMAALRHVTDLSSSTVRSRVDASRRGVAGHSMGGGGTLIAARDNPSLKAAVPLTAWSTTKIFSTVQVPTLVVGAESDSVAPVSSHSIPFYNSLSNSLDKAYAELNNASHFAPNSTNTPIGRYSVAWVKRFMDNDTRYTPFLCGTPHTSYATSTVFSDYRSTCPY
# B8: unnamed (protein)
# chain: MTPTTHDDIDSHPSRTPAMRRAWPAFIAGTLLSLGAQAQVAIFKEDFQGGIGQFTSAGAASVSNGRVVMKGCLTCADGSVTSKEISTVGFDALRLSYDRTIVGLDAGEYGEVAYAVDGGEWTMLWGRLDNRSGRGTIDLPAAAANQKSLRLRYRIHASDSAETFTLDNVLLEGTPRSVTHPNPYAKGPDPTASALEAKAGPFTYAATVVPSGKASGYGGGTLYHPDKEVGPFAAIVIVPGYTATQESVKWWGPLLASHGFVVMVIDTLDNRDLPGSRATQLMAAVSQVKGFNTTQGHAIQGKVDPARVGIMGWSFGGGGTLLAAQAHPELKAAIPMAPKTWGETLKTADIKVPTLIIGCQADTTAPVKDWAIPFHEGIPGSVRKAYLEIAQGGHGCVSAQFNKKAADLAMMGKYGVSWMKRFLDEDTRYSPYLCGAPHQADVNGKTVVSAYRENCPY
# B9: unnamed (protein)
# chain: MHTKNYRNDARTVPKRSSLAKSLLAGGILLFSAAANADIIFQEDFNSSLGQFTASGSVTTGTYGARMAAAYGSGDAFITSAPISTVGFTNISLTWTRTTSGLDSGESGIAMFSTNGSTWTTIESVQSASGVRTVALPAGAAGQSALRLRFEVDGSLSSETYTVDTIRLEGTGSGGGCEPNCEPPPTGNPYERGPAPTTSSLEASTGPFQVATTTVSSTTADGYGSGTIYHPTGVTGPFAAIAICPGYTATQTSISQWGPRLASHGFVVITINTNSTSDQPPSRATQLMAALDQLVTFSNTSGHAIFGKVDGTRRGVMGHSMGGGGSLIAARDNPSLKAAIPMAPWYSSSTNFSAIRTPTMIVACESDSIARVSSHALPFYNSIPSTTPKAFAERNNGSHNCPINNNDWWPTLNKYGVAWMKRFLDNDTRYSPWLCGAPHEAVVDGTTYSRYLSNCPY
# B10: unnamed (protein)
# chain: MKTTTIIKSTLCAFTLTFSLSAFSGGGGGGGGGNNGNLPPPDTCNTNCGYEIGPNPTLGFLQASQGPLPVSSTNVSSSVNGFGGGTIYYPSNISDEMAAISIAPGFTNTQSAVAWWGPILASHGFVVITINTNSRFDQPESRSRQLDSALSYLISEGDRGSSPISGLVDENRLATMGFSMGGGGSLRSASRNRLSAAVPLAPWSTGSNNFDDIGVPTLIMACENDTTARVNTHASPFYNAIPGSTDKAFMEINNGPHNCANGESSTNRSLLSTYGVSWMKRFLDKDRRYNQFLCGPNHEANSRISEYRDTCSYG
# B11: unnamed (protein)
# chain: MAKFTGAAQFLKASMAIGAIVLSAAASAQTNPYQRGPAPTDSSLAADRGPLAYSSFTVSRPSGYRAGTVYYPTNAGGTVGAIAVVPGFTAYQSDINWWGPRLASWGFVVITIDTNSTLDQPSSRSRQQLAALDQVATLSRTSGSPIYNKVDTSRMGVMGWSMGGGGSLISTQNRPSLKASIPFAPWNGTSSFSSVTTPTFIIACQSDLIAPVASHANDFYNSLSRPPKMFLEIRGGSHYCANSSNGNKDVLGAKGVAWMKRY
# B12: unnamed (protein)
# chain: MRHRSISALVLGTAVVAGAAQAQINPFAKGPDPTPASIQATGPFAISMQTVPRAAGFGGATVYSPNDPGSYALVVLCPGFIETQSAISAVGQRLATHGFVVATIDTVTTIDFPASRGTQLIAALQTITALNTGPVAGKIDTTRLVVGGHSMGGGGTLEASRTNPAIKAGLPIAPFHFVKQFNTPVPQLITGGQVDAIAPVGQHAIPFFEMLPDATPKIYAELTGGNHFFVTQNPPNQPINKLLLAWTKRFADNDLRYEQFITATAVQAEVANGALSQTRREATPF
# B13: unnamed (protein)
# chain: MQYASTPTLRHVAQFAKASVLAATVLLASVAHAQFEKGPNPTVSALERAGTFATRTTTVSSLSASGFGGGTIYYPTAAGSYGVIAISPGFTARQSSISWMGTRIASHGFVVITIDTNTTSDQPDSRARQLKAALDKVVSLSTGRTNVLYGKVDASRLAVAGHSMGGGGSLAAARDYPTLKAAVPLAPWHTTKSFSSVRVPTLIISGENDSVAGNSSHSIPFYNSLPSSTPKGYLELNAEDHFFPQDSGEYGLVGKYMISWFKRFVDSDTRYSPFLCGAEHQAQVRVTSRVSDSRTNCPY
# B14: unnamed (protein)
# chain: MISNRRAPARRAGAALTALALAVVLAACDIRGPAPTEQILEAPSGPFAVGSVAVPSSAGFGGGTIYYPSEAAGPFGIIAVTPGFLGNQTSIGTWGPRLASHGFVTITINTTGGFILPDQRSAEQRQALTYVVNQGNRSSSPIFGKVDGDRKGVAGHSMGGGGTLVSAREDPTIRAAVPFAPWYTSTNFSNVTVPTLIVACQSDGVAPVASHASPFYNSIPATTDKSYISVAGADHFCANSPTGGANDVGKYVVAFFKRFVDGDTRYDPWVCG
# Substrate: BHET
# Settings: 120 h
row,Protein,plate clearing
1,B1,clears the plate (z > 3 vs empty vector)
2,B2,not clears the plate
3,B3,not clears the plate
4,B4,not clears the plate
5,B5,not clears the plate
6,B6,not clears the plate
7,B7,not clears the plate
8,B8,not clears the plate
9,B9,clears the plate (z > 3 vs empty vector)
10,B10,not clears the plate
11,B11,not clears the plate
12,B12,not clears the plate
13,B13,not clears the plate
14,B14,not clears the plate
